Test results as given in patent US20170267986A1, “GENERATION OF MANNOSE-6-PHOSPHATE CONTAINING RECOMBINANT ALPHA-N-ACETYL GLUCOSAMINIDASE” (SHIRE HUMAN GENETIC THERAPIES, INC., priority 2014, published 2017).

Legend:
rhNaglu = target: T1, rhNaglu (Homo sapiens, UniProt P54802); assay: Naglu activity assay with various inhibitors (4MU-GlcNAc fluorescent substrate); format: biochemical; settings: added at 0.0625, 0.25, 1, 4 and 8 mM; 37° C., 1 hour, pH 4.5
T1 construct: The N-terminal 23 amino acids are cleaved as the precursor protein enters the endoplasmic reticulum, resulting in a mature form; made in house; host or cells: human fibrosarcoma HT1080 cell clone over-expressing rhNaglu
T1 sequence (P54802 24-743): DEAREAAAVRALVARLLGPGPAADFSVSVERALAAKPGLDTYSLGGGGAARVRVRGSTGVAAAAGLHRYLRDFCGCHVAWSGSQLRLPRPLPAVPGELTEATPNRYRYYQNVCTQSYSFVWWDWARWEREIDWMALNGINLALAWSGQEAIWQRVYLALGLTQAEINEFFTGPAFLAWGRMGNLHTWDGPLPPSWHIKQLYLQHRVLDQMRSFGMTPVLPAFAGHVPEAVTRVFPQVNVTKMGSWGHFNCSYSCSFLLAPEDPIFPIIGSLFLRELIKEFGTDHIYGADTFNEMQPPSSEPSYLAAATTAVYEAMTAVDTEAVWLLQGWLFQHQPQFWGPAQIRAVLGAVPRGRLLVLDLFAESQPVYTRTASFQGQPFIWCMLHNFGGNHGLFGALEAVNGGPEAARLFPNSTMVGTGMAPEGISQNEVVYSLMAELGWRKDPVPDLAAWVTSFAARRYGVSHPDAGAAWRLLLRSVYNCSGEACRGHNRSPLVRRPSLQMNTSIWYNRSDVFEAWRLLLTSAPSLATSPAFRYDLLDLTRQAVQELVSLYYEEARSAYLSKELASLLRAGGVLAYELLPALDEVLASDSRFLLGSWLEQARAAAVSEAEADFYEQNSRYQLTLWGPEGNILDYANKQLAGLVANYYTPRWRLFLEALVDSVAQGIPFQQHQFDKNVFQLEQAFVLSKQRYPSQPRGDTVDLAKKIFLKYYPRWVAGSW
Protocol: A 10 mM stock of Naglu activity substrate solution was prepared by dissolving 5 mg of substrate, i.e., 4-methylumbelliferyl-N-acetyl-α-D-glucosaminide, in 250 μl of 100% DMSO. Naglu activity assay reaction buffer (0.1 M sodium acetate, 0.5 mg/ml BSA, pH 4.5) was then added to bring the volume up to 1318 μl. This 10 mM substrate stock solution was then diluted 10 fold with reaction buffer to make the final 1 mM substrate solution.
Samples and controls were pre-diluted in reaction buffer. 10 μl of each pre-diluted sample/control were applied in duplicate wells on a black clear bottom 96 well plate. 75 μl of 1 mM substrate solution containing various concentrations of inhibitors were added to each well. The plates were sealed with plate sealer and wrapped with aluminum foil. The plates were then placed in a Boekel Jitterbug Microplate Incubator Shaker (Cole-Parmer, Vernon Hills, Ill.) and shaken (setting at #1) at 37° C. for 1 hour. 200 μl of Stop Buffer (0.2 M Glycine, pH 10.7) were then added to all of the wells and fluorescence emission (excitation/emission at 360 nm/460 nm, respectively) was measured using a SpectraMax® Plus M2 plate reader from Molecular Devices (Sunnyvale, Calif.).
To further confirm that rhNaglu could hydrolyze UDP-GlcNAc, we investigated whether UDP-GlcNAc inhibited the hydrolysis by rhNaglu of the fluorescent substrate 4MU-GlcNAc (4-methylumbelliferyl-N-acetyl-α-D-glucosaminide) in a Naglu activity assay. Briefly, UDP-GlcNAc, as well as GlcNAc, UDP-GalNAc and Glucosamine, were added to the Naglu activity assay at 0.0625, 0.25, 1, 4 and 8 mM concentrations. The fluorescence emitted from these samples was compared to control samples only including rhNaglu and 4MU-GlcNAc.

[1] = target: Soluble cation-independent mannose-6-phosphate receptor (sCI-M6PR); assay: plate-based sCI-M6PR binding ELISA (sCI-M6PR coated, HRP anti-Naglu polyclonal #2957 detection); KD extrapolated from binding curves
CI-M6PR = target: T2, CI-M6PR (Homo sapiens, UniProt P11717); assay: Plate based sCI-M6PR binding assay (ELISA)
T2 construct: the secreted sCI-M6PR was purified from the tissue culture medium; made in house
Protocol: (1) Generation of sCI-M6PR (soluble CI-M6PR)—Full length M6PR was expressed in genetically modified tissue culture cells, and the secreted sCI-M6PR was purified from the tissue culture medium using an aminophenyl-M6P conjugated resin (Beljaars et al., 1999). N-terminal sequencing and LC/MS/MS analysis of the obtained protein confirmed the amino acid sequence of the sCI-M6PR, and MALDI analysis confirmed that its molecular mass was 279,492 Da.
100 μl of sCI-M6PR(2.5 μg/ml) in DPBS were coated on MaxiSorp® Nunc-Immuno flat-bottom 96-well plates (Thermo Fisher Scientific, Inc., Sunnyvale, Calif.). After incubation for 1 hour at 37° C., the plates was washed with ELISA wash buffer (0.1% Tween-20 in DPBS). sCI-M6PR coated wells were blocked with 300 μl ELISA blocking buffer (DPBS, 2% BSA, 0.05% Tween 20) at 37° C. for 1 hour. Appropriate dilutions of sGNPT-modified Naglu-Kif (and rhNaglu as control) were made in blocking buffer and added to the wells. After 1 hour incubation at 37° C., the plates were washed with ELISA wash buffer, and 100 μl of HRP-conjugated rabbit anti-Naglu polyclonal antibody #2957 diluted in blocking buffer were added. After 1 hour incubation at 37° C., the plates was washed again with ELISA wash buffer. The ELISA was developed using TMB peroxidase substrate solution (KPL, Inc., Gaithersburg, Mass.) by following the manufacturer's protocol.
sGNPT transfers the phospho-GlcNAc group from UDP-GlcNAc to mannose sugar, and the resulting mannose-6-phosphate-GlcNAc is called the Capped-M6P. During the normal intracellular glycosylation process, the decapping enzyme (N-acetylglucosamine 1-phosphodiester α-N-acetyglucosaminidase) removes the GlcNAc from the Capped-M6P, to generate M6P. But without decapping, the Capped-M6P can also bind to CI-M6PR. Capped-M6P binds to domain 5 of CI-M6PR rather than to domain 3 or 9, as M6P does (Bohnsack et al. 2009). The amount of Capped-M6P on Naglu-Kif can be indirectly evaluated using a CI-M6PR plate binding assay. In this binding assay the affinity with which Naglu-Kif bound to CI-M6PR increased in proportion to the amount of sGNPT used (35 μg, 70 μg and 140 (corresponding to about 4.2 μM) (green, red and empty circle in FIG. 8, respectively)) to modify Naglu-Kif and thus the extent of Capped-M6P found on Naglu-Kif (FIG. 8). […] These binding reactions were repeated in two different buffer systems, i.e., in a sodium acetate buffer (40 mM NaAc pH 6.5, 10 mM MnCl2, 10 mM MgCl2) and in a Tris buffer (50 mM Tris pH 7.4, 10 mM MnCl2, 10 mM MgCl2), which gave similar results. Contrary to Naglu-Kif, rhNaglu was not phosphorylated by sGNPT under the same conditions due to the lack of high-mannose glycans.

`CC(=O)N[C@H]1C(O)O[C@H](CO)[C@@H](O)[C@@H]1O` (stereo partly drawn) [GlcNAc, N-acetylglucosamine] was tested, and the “inhibition of rhNaglu activity toward 4MU-GlcNAc” value (from here on “inhibition”) (rhNaglu) was “Inhibition”.

For “Naglu-Kif (high-mannose-containing recombinant human Naglu) modified in vitro with 140 µg sGNPT (from UniProt P54802 24-743) (enzyme)”, the Kd [1] was 1.48 nM.

In the case of “Naglu-Kif (high-mannose-containing recombinant human Naglu) modified in vitro with 70 µg sGNPT (from UniProt P54802 24-743) (enzyme)”, the Kd [1] is reported as 5.92 nM.

“uridine diphosphate N-acetyl galactosamine [UDP-GalNAc]” was tested, and the “inhibition” value (rhNaglu) was “not inhibited”.

With “Naglu-Kif (high-mannose-containing recombinant human Naglu) modified in vitro with 35 µg sGNPT (from UniProt P54802 24-743) (enzyme)” the Kd [1] was 15.3 nM.

In the case of `N[C@H]1C(O)O[C@H](CO)[C@@H](O)[C@@H]1O` (stereo partly drawn) [glucosamine], the “inhibition” value (rhNaglu) is reported as “not inhibited”.

B1: Naglu-Kif: high-mannose-containing recombinant human Naglu purified from HT1080 cells grown with 2 mg/l Kifunensine; tested after sGNPT modification (protein)
chain: DEAREAAAVRALVARLLGPGPAADFSVSVERALAAKPGLDTYSLGGGGAARVRVRGSTGVAAAAGLHRYLRDFCGCHVAWSGSQLRLPRPLPAVPGELTEATPNRYRYYQNVCTQSYSFVWWDWARWEREIDWMALNGINLALAWSGQEAIWQRVYLALGLTQAEINEFFTGPAFLAWGRMGNLHTWDGPLPPSWHIKQLYLQHRVLDQMRSFGMTPVLPAFAGHVPEAVTRVFPQVNVTKMGSWGHFNCSYSCSFLLAPEDPIFPIIGSLFLRELIKEFGTDHIYGADTFNEMQPPSSEPSYLAAATTAVYEAMTAVDTEAVWLLQGWLFQHQPQFWGPAQIRAVLGAVPRGRLLVLDLFAESQPVYTRTASFQGQPFIWCMLHNFGGNHGLFGALEAVNGGPEAARLFPNSTMVGTGMAPEGISQNEVVYSLMAELGWRKDPVPDLAAWVTSFAARRYGVSHPDAGAAWRLLLRSVYNCSGEACRGHNRSPLVRRPSLQMNTSIWYNRSDVFEAWRLLLTSAPSLATSPAFRYDLLDLTRQAVQELVSLYYEEARSAYLSKELASLLRAGGVLAYELLPALDEVLASDSRFLLGSWLEQARAAAVSEAEADFYEQNSRYQLTLWGPEGNILDYANKQLAGLVANYYTPRWRLFLEALVDSVAQGIPFQQHQFDKNVFQLEQAFVLSKQRYPSQPRGDTVDLAKKIFLKYYPRWVAGSW
In the case of B1, the Kd (CI-M6PR; Naglu-Kif modified with 35 μg sGNPT) is reported as 15.3 nM, the Kd (CI-M6PR; Naglu-Kif modified with 70 μg sGNPT) is reported as 5.92 nM and the Kd (CI-M6PR; Naglu-Kif modified with 140 sGNPT (about 4.2 μM)) is reported as 1.48 nM.
